Positions count from the first letter of the chain named. Numbers in names are those of the source.
B1: A190S (protein)
chain: MQLRNPELHLGCALALRFLALVSWDIPGARALDNGLARTPTMGWLHWERFMCNLDCQEEPDSCISEKLFMEMAELMVSEGWKDAGYEYLCIDDCWMAPQRDSEGRLQADPQRFPHGIRQLANYVHSKGLKLGIYADVGNKTCAGFPGSFGYYDIDAQTFADWGVDLLKFDGCYCDSLENLADGYKHMSLSLNRTGRSIVYSCEWPLYMWPFQKPNYTEIRQYCNHWRNFADIDDSWKSIKSILDWTSFNQERIVDVAGPGGWNDPDMLVIGNFGLSWNQQVTQMALWAIMAAPLFMSNDLRHISPQAKALLQDKDVIAINQDPLGKQGYQLRQGDNFEVWERPLSGLAWAVAMINRQEIGGPRSYTIAVASLGKGVACNPACFITQLLPVKRKLGFYEWTSRLRSHINPTGTVLLQLENTMQMSLKDLL
B2: L191V (protein)
chain: B1 chain with S190A, L191V
B3: L286F (protein)
chain: B1 chain with S190A, L286F
B4: L191M (protein)
chain: B1 chain with S190A, L191M
B5: A190T (protein)
chain: B1 chain with S190T
B6: N192D (protein)
chain: B1 chain with S190A, N192D
B7: I289V (protein)
chain: B1 chain with S190A, I289V
B8: A190V (protein)
chain: B1 chain with S190V
B9: L286H (protein)
chain: B1 chain with S190A, L286H
B10: A291G (protein)
chain: B1 chain with S190A, A291G
B11: L294I (protein)
chain: B1 chain with S190A, L294I
B12: L294F (protein)
chain: B1 chain with S190A, L294F
B13: A288S (protein)
chain: B1 chain with S190A, A288S
B14: I289L (protein)
chain: B1 chain with S190A, I289L
B15: I289T (protein)
chain: B1 chain with S190A, I289T
B16: A292S (protein)
chain: B1 chain with S190A, A292S
B17: A288G (protein)
chain: B1 chain with S190A, A288G
B18: N192H (protein)
chain: B1 chain with S190A, N192H
B19: A292G (protein)
chain: B1 chain with S190A, A292G
B20: A288V (protein)
chain: B1 chain with S190A, A288V
B21: L286V (protein)
chain: B1 chain with S190A, L286V

Tested on: mutant form of α-Gal A expressed in HEK-293 cells
Test: HEK assay (GLP HEK / Migalastat Amenability Assay): α-Gal A activity in lysates of transiently transfected HEK-293 cells incubated with or without 10 μM migalastat
Assay type: cell-based, human
Conditions: 10 μM migalastat versus baseline
In short: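 HEK-293 cells transiently transfected with mutant α-Gal A and incubated with or without 10 μM migalastat; lysate activity given as nmol free 4-MU released per mg protein per hour. Values are mean±SEM.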

| Molecule | Absolute increase (% WT) | Relative increase |
| --- | --- | --- |
| B1 | 26.1 |  |
| B2 | 39.1 |  |
| B3 | 23.2 | 1.4 |
| B4 | 41.7 |  |
| B5 | 30.7 |  |
| B6 | 55.6 |  |
| B7 | 13.6 | 1.2 |
| B8 | 41.2 |  |
| B9 | 15.4 | 22.2 |
| B10 | 34.9 | 2.3 |
| B11 | 53.6 | 3.2 |
| B12 | 38.8 | 2.3 |
| B13 | 25.8 | 1.2 |
| B14 | 27.5 | 1.3 |
| B15 | 36.7 | 2.0 |
| B16 | 21.3 | 1.3 |
| B17 | 19.9 | 1.4 |
| B18 | 16.4 |  |
| B19 | 24.3 | 1.6 |
| B20 | 31.7 | 1.4 |
| B21 | 32.9 | 1.4 |

Same assay, conditions: 10 μM migalastat α-Gal A activity relative to baseline

| Molecule | Relative increase |
| --- | --- |
| B1 | 1.3 |
| B2 | 1.6 |
| B4 | 1.8 |
| B5 | 2.1 |
| B6 | 3.2 |
| B8 | 2.2 |
| B18 | 2.8 |

Same assay, conditions: 10 μM migalastat, 5 days; percentage of baseline wild-type α-Gal A activity; mean ± SEM

| Molecule | 10 μM migalastat α-Gal A activity (% WT) |
| --- | --- |
| B1 | 110.6 ± 5.5 |
| B2 | 110.2 ± 7.9 |
| B4 | 100.2 ± 9.8 |
| B5 | 57 ± 1.9 |
| B6 | 81.5 ± 6.7 |
| B8 | 77.9 ± 9.5 |
| B18 | 24.9 ± 3 |

Same assay, conditions: absence of migalastat; percentage of baseline wild-type α-Gal A activity; mean ± SEM

| Molecule | Baseline α-Gal A activity (% WT) |
| --- | --- |
| B1 | 84.5 ± 3.2 |
| B2 | 71.1 ± 4.7 |
| B3 | 64.5 ± 2.8 |
| B4 | 58.4 ± 6.6 |
| B5 | 26.3 ± 2 |
| B6 | 25.9 ± 3 |
| B7 | 61.2 ± 3.2 |
| B8 | 36.8 ± 5.1 |
| B9 | 0.8 ± 0.1 |
| B10 | 26.6 ± 1.5 |
| B11 | 24.8 ± 2.4 |
| B12 | 29.6 ± 3 |
| B13 | 114.6 ± 10.6 |
| B14 | 96.9 ± 10.5 |
| B15 | 38.6 ± 4.8 |
| B16 | 68.6 ± 2.9 |
| B17 | 56.8 ± 6.3 |
| B18 | 8.6 ± 1.1 |
| B19 | 41.1 ± 2.2 |
| B20 | 82.5 ± 9 |
| B21 | 66 ± 5.1 |

Same assay, conditions: lysates of HEK-293 cells transfected with the mutant form, incubated 5 days in the absence of migalastat; mean ± SEM

| Molecule | Baseline α-Gal A activity [nmol/mg/h] |
| --- | --- |
| B1 | 27316 ± 1369 |
| B2 | 24068 ± 1533 |
| B4 | 19968 ± 2010 |
| B5 | 8600 ± 733 |
| B6 | 9035 ± 886 |
| B8 | 12542 ± 1642 |
| B18 | 3103 ± 402 |

Same assay, conditions: lysates of HEK-293 cells transfected with the mutant form, incubated 5 days with 10 μM migalastat; mean ± SEM

| Molecule | 10 μM migalastat α-Gal A activity [nmol/mg/h] |
| --- | --- |
| B1 | 35787 ± 2235 |
| B2 | 37342 ± 2569 |
| B4 | 34977 ± 3072 |
| B5 | 18373 ± 795 |
| B6 | 28923 ± 1892 |
| B8 | 27078 ± 2910 |
| B18 | 8765 ± 935 |

Same assay, conditions: lysates of HEK-293 cells transiently transfected with the mutant form, incubated 5 days in absence of migalastat; mean ± SEM

| Molecule | Baseline α-Gal A activity [nmol/mg/h] |
| --- | --- |
| B3 | 29390 ± 1225 |
| B7 | 25845 ± 1706 |
| B9 | 359 ± 52 |
| B10 | 6953 ± 474 |
| B11 | 8345 ± 717 |
| B12 | 10147 ± 971 |
| B13 | 45790 ± 3395 |
| B14 | 37941 ± 3208 |
| B15 | 15033 ± 1450 |
| B16 | 18002 ± 1127 |
| B17 | 22208 ± 1755 |
| B19 | 12091 ± 652 |
| B20 | 32777 ± 3168 |
| B21 | 28713 ± 3734 |

Same assay, conditions: lysates of HEK-293 cells transiently transfected with the mutant form, incubated 5 days with 10 μM migalastat; mean ± SEM

| Molecule | 10 μM migalastat α-Gal A activity [nmol/mg/h] |
| --- | --- |
| B3 | 39732 ± 2859 |
| B7 | 31489 ± 1397 |
| B9 | 7960 ± 1511 |
| B10 | 16073 ± 954 |
| B11 | 26761 ± 1915 |
| B12 | 23486 ± 2100 |
| B13 | 55988 ± 2609 |
| B14 | 49640 ± 3368 |
| B15 | 29673 ± 2480 |
| B16 | 23779 ± 1584 |
| B17 | 30458 ± 2381 |
| B19 | 19406 ± 1361 |
| B20 | 45501 ± 4634 |
| B21 | 41335 ± 3422 |

Same assay, conditions: with 10 μM migalastat, 5 days; percentage of baseline wild-type α-Gal A activity; mean ± SEM

| Molecule | 10 μM migalastat α-Gal A activity (% WT) |
| --- | --- |
| B3 | 87.7 ± 7.3 |
| B7 | 74.8 ± 2.7 |
| B9 | 16.2 ± 2.5 |
| B10 | 61.5 ± 2.6 |
| B11 | 78.4 ± 6 |
| B12 | 68.4 ± 6.5 |
| B13 | 140.4 ± 10.5 |
| B14 | 124.4 ± 11.3 |
| B15 | 75.3 ± 7.9 |
| B16 | 89.9 ± 3.4 |
| B17 | 76.7 ± 7.4 |
| B19 | 65.3 ± 4 |
| B20 | 114.2 ± 12.4 |
| B21 | 98.9 ± 4.3 |
